The results in this text go back to doi:10.1101/2022.11.23.517371.

In the assay the target is nicotinate-nucleotide pyrophosphorylase (NMnPP) (Saccharomyces cerevisiae S288c) (UniProt P43619). In words: negative-stain TEM.

What is called stoichiometry N is the number of molecules, sites or subunits per partner or assembly. On to “nicotinate-nucleotide pyrophosphorylase (NMnPP) (from UniProt P43619 1-295) (enzyme)”, for which the stoichiometry N amounted to 6.
